According to US20060115477A1 (Bristol-Myers Squibb, published 2006):

Molecular target: T1, neuropilin-1 (human, UniProt O14786 22-923)
T1 construct: whole, on cells; On intact cells in FACS and cell assays; pulled down from Triton X-100 lysate of HT1080 cells in the immunoprecipitation, identified as the full length form by MALDI peptide mass fingerprint; also called NP-1; VEGF165R
Experiment: competition FACS on HT1080 cells preincubated with VEGF165 (legend of FIG. 17)
Protocol: ScFv's were labeled with fluorescein isothiocyanate (Molecular Probes, # F-1906) according to the instructions of the manufacturer. HT1080 cells were preincubated with a control scFv, a NP-1-binding scFv's (e.g. scFv8, scFv13 or scFv22) (both at 25 μg/ml) or VEGF₁₆₅ (R&Dsystems, #293-VE/CF) ([…]) for 2 hours at 0° C. and the fluorescein labeled NP-1-binding scFv (5 μg/ml) was added for 30 min. at 0° C. Bound fluorescein labeled scFv were detected by flow cytometry and the geometric mean fluorescence intensity was recorded. In order to determine if NP-1-binding scFv has overlapping epitopes with VEGF and each other for binding to cell surface NP-1, a competition FACS with directly labeled scFv was performed. […] Furthermore, scFv8 and scFv24 have mutually overlapping epitopes whereas scFv13 has an epitope distinct from scFv8 and scFv24.

T1 sequence (O14786 22-923): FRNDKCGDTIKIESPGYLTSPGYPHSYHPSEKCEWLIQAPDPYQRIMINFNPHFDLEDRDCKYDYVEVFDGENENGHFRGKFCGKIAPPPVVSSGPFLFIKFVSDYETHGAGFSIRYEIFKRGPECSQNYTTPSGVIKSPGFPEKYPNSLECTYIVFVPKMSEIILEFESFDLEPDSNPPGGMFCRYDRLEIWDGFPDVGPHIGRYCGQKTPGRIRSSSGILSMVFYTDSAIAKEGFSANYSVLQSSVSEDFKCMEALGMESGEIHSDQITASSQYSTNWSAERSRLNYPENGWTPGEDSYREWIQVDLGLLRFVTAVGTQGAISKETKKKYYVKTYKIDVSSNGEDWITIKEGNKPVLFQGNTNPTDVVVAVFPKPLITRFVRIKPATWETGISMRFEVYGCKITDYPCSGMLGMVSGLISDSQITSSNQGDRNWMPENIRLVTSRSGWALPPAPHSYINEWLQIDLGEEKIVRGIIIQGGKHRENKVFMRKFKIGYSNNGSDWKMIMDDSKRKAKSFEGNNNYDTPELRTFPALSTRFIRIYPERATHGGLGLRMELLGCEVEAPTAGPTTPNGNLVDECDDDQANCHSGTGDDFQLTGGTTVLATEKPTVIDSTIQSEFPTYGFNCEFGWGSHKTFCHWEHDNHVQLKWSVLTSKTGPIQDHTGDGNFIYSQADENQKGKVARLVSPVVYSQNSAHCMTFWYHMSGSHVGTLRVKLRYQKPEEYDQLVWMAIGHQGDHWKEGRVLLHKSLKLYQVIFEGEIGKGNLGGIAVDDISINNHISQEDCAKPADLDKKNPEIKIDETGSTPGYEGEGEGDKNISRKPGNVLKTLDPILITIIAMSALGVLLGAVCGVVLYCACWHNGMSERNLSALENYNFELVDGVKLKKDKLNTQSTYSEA

binding result: binds
B1: VEGF165 (R&Dsystems, #293-VE/CF) (ligand, human, UniProt P15692-4 27-191, looked up)
chain: APMAEGGGQNHHEVVKFMDVYQRSYCHPIETLVDIFQEYPDEIEYIFKPSCVPLMRCGGCCNDEGLECVPTEESNITMQIMRIKPHQGQHIGEMSFLQHNKCECRPKKDRARQENPCGPCSERRKHLFVQDPQTCKCSCKNTDSRCKARQLELNERTCRCDKPRR
notes: mature; also called recombinant human VEGF
